To fix the notation:
B3: AF6 RA1 domain (residues 37–136) (domain or fragment, UniProt Q9QZQ1 37-136, looked up)
chain: LEFHGVMRFYFQDKAAGNFATKCIRVSSTATTQDVIETLAEKFRPDMRMLSSPKYSLYEVHVSGERRLDIDEKPLVVQLNWNKDDREGRFVLKNENDAIP
notes: AF6/afadin first RAS association (RA1) domain, residues 37-136; 15N-labelled for the NMR titration; The monomer fraction was used for crystallisation; also called core RA1 domain; core AF6 RA domain; source: E. coli BL21, purified (glutathione resin, thrombin cleavage, size exclusion chromatography); not shown: GST, N-terminal, cleaved

Data set [1] deals with the molecule itself. The data set is described as follows: native gel or EMSA; blue native PAGE (BN–PAGE), 15% acrylamide; proteins purified by size exclusion chromatography and concentrated to 100–150 μM.
The target in data set [2] is B3. In words: NMR titration; AF6 6–36 fragment titrated into 15N-AF6 RA1; 1H/15N-HSQC; 25 °C; 20 mM Tris-HCl pH 7.5, 100 mM NaCl, 1 mM DTT, 5 mM MgCl2, 10% D2O. The settings on record: both partners purified.
Data set [3] deals with the molecule itself. In words: SEC; size exclusion chromatography of the purified domain at several concentrations (S75 or S200 column). (In general: In gel filtration, larger molecules generally elute earlier.)
Data set [4] deals with T1, H-RAS (residues 1–171), GMPPNP-loaded (human, UniProt P01112 1-171).
T1 construct: wild-type H-RAS, human cDNA, Gene ID 3265, residues 1-171; also called RAS-GMPPNP; source: E. coli BL21, purified (Ni-NTA, thrombin, size exclusion chromatography), loaded with GMPPNP; not shown: HIS tag, N-terminal, cleaved
In words: ITC; Microcal VP-ITC; RA domains titrated into GMPPNP-loaded RAS; 20 mM Tris-HCl pH 7.5, 100 mM NaCl, 5 mM MgCl2, 1 mM DTT; 25 °C. The following applies: both partners purified. (In ITC the heat of successive injections is recorded.)

The values that follow come from PMC5653649, “Evolution of AF6-RAS association and its implications in mixed-lineage leukemia” (Nature Communications, 2017).

B1: BTBD18 (residues 97–134) fused upstream of the ARAF RBD domain (residues 17–94) (other, UniProt B2RXH4 97-134, looked up)
chain: EMEVSQEEAQDVLSAARQLRVSELESLQLEGGKLVKAPAVGTVKVYLPNKQRTVVTVRDGMSVYDSLDKALKVRGLNQDCCVVYRLIKGRKTVTAWDTAIAPLDGEELIVEVLEDV
notes: human BTBD18, Gene ID 643376, residues 97-134 (helix-turn-helix with a hydrophobic patch); source: E. coli BL21, purified (expressed from pGEX-4T2); not shown: GST, N-terminal, cleaved
What is called stoichiometry N is a count of units in the complex or per binding partner. For B1, the “stoichiometry N” value in data set [1] stood at 2.

B2: AF6 αN helix fragment (residues 6–36) (domain or fragment, UniProt Q9QZQ1 6-36, looked up)
chain: RDEERRKLADIIHHWNANRLDLFEISQPTED
notes: AF6/afadin residues 6-36 encompassing the αN helix (31 residues); also called AF6 6–36; αN helix alone; source: E. coli BL21, purified (glutathione resin, thrombin cleavage, size exclusion chromatography); not shown: GST, N-terminal, cleaved
As to B2, the binding result in data set [2] is on record as “binds”.

By Kd is commonly meant a measure of binding affinity in units of concentration. Regarding B3, the “stoichiometry N” value in data set [3] was 2. For the same molecule, the Kd in data set [4] is 17.8 µM.

B4: AF6 αN-extended RA1 domain (residues 6–136) (domain or fragment, UniProt Q9QZQ1 6-136, looked up)
chain: RDEERRKLADIIHHWNANRLDLFEISQPTEDLEFHGVMRFYFQDKAAGNFATKCIRVSSTATTQDVIETLAEKFRPDMRMLSSPKYSLYEVHVSGERRLDIDEKPLVVQLNWNKDDREGRFVLKNENDAIP
notes: AF6/afadin αN helix and RA1 domain, residues 6-136; also called αN-RA1; αN/RA1; source: E. coli BL21, purified (glutathione resin, thrombin cleavage, size exclusion chromatography); not shown: GST, N-terminal, cleaved
In the case of B4, the equilibrium dissociation constant (Kd) in data set [4] is 4.1 µM.
